Where no end group is shown, it is not given here. [ ]: non-standard residue; d: D form. pY = N[C@@H](Cc1ccc(OP(=O)(O)O)cc1)C(=O)O
What was measured:
[1] = biological target: the molecule itself; assay: non-reducing SDS-PAGE and immunoblot; HEK293T cells, PV time course, washed with PBS with catalase and NEM, lysed in 2% SDS with NEM; disulfide-linked dimer as slower migrating species
[2] = biological target: T1, human SRC SH2 domain (Gln147-Lys252), wild type (human, UniProt P12931-1 147-252); assay: ITC; peptide (400 uM) titrated into SRC SH2 (40 uM) in the cell, 25 C, MicroCal PEAQ-ITC Automated; SH2 domain pretreated with 1 mM TCEP (reducing conditions); details: both partners purified
T1 construct: SRC SH2 domain, human, residues Gln147-Lys252, cloned in pETM11; numbering on UniProt P12931-1; Used after pretreatment with 1 mM TCEP (reduced) or 0.1 mM pervanadate (cysteines oxidised; which residues were oxidised in this sample was not determined); The two states are told apart by the assay (a1, a2); also called SH2^WT; SRC SH2^WT

B1: peroxiredoxin 1 (PRDX1) (natural protein, human (endogenous in HEK293T), UniProt Q06830 1-199, looked up)
chain: MSSGNAKIGHPAPNFKATAVMPDGQFKDISLSDYKGKYVVFFFYPLDFTFVCPTEIIAFSDRAEEFKKLNCQVIGASVDSHFCHLAWVNTPKKQGGLGPMNIPLVSDPKRTIAQDYGVLKADEGISFRGLFIIDDKGILRQITVNDLPVGRSVDETLRLVQAFQFTDKHGEVCPAGWKPGSDTIKPDVQKSKEYFSKQK
notes: peroxiredoxin 1, endogenous in HEK293T cells; Disulfide-linked dimer seen on non-reducing gels; source: endogenous, HEK293T lysate
stoichiometry N [1]: 2

B2: optimized SRC binding phosphopeptide (EPQpYEEIP) (peptide)
peptide: EPQ[pY]EEIP
notes: source: synthetic peptide, bought: Biosynth (95% purity)
binding result [2]: binds
